1 substance from publication PMC6941969 can be followed below.

For this experiment, the target named is VemH (Streptomyces venezuelae ATCC 10712).

For the substance VemG (enzyme), the apparent Kd from enzyme activity: initial velocities of venemycin production (HPLC) at constant 0.2 µM VemH and 0.1–8.0 µM VemG, fit with a quadratic binding equation came to 5.1 µM.
